# B1: HDV Ribozyme (parent)
# chain: GGCCGGCAUGGUCCCAGCCUCCUCGCUGGCGCCGGCUGGGCAACAUUCCGAGGGGACCGUCCCCUCGGUAAUGGCGAAUGGGACCCA
# Variants of: B1
# Test: self-cleavage, relative activity (ratio to wild type); higher = more cleavage; co-transcriptional
row,Variant,self-cleavage
1,C15A G29C,0.0692
2,C15A G29U,0
3,A16G C61A,1.08
4,A16G C61U,1.26
5,C15U U65A,0.831
6,A16G G50A,1.4
7,A16G U46C,0.293
8,C15G G25A,0.161
9,A16U U23G,0.575
10,A16U U23A,0.739
11,C15G C75U,0.237
12,A16G A51C,1.05
13,A16U G25C,0.32
14,C15G G55A,0.522
15,A16U U46A,0.489
16,A16U U46G,0.437
17,A16U U46C,1.21
18,A16C C30G,0.128
19,A16C C30A,0.208
20,A16C G82U,0.201
21,C15A G31C,0
22,C15A G31A,0.16
23,C15U C41G,0.475
24,C15A G81A,0.57

row,Variant,self-cleavage
1,C15A C33U,0.427
2,A16U C33U,0.684
3,A16U C33G,0.166
4,A16U G67U,0.975
5,C15G U79C,0.342
6,C15G U79G,0.391
7,C15A C21A,0
8,C15A C21U,0.0415
9,C15A U37G,0.0755
10,C15G A83U,0.0791
11,C15G A83C,0.249
12,A16G C57U,1.14
13,A16G C57G,1.2
14,A16G G76C,1.12
15,C15A C62U,0.764
16,C15A C62A,0.677
17,C15A C62G,0.499
18,A16G G31C,0.208
19,C15A G59U,0.623
20,C15A G59A,0.543
21,A16C C62G,0.403
22,C15A C63U,0.649
23,C15G A42C,0.0755
24,C15G A42U,0.0504

row,Variant,self-cleavage
1,C15G A42G,0.166
2,A16G A43G,0.266
3,A16U G38U,0.253
4,A16U G38A,0.113
5,A16G G38U,0.341
6,A16G G80U,0.208
7,A16G G53A,1.04
8,A16U G53U,0.985
9,C15U A83C,0.65
10,C15A G25U,0.0791
11,A16U G81A,0.813
12,C15A G35U,0.188
13,A16C G29U,0.0755
14,C15G C44G,0.434
15,G17A A56U,0.528
16,C15A G80U,0.899
17,C15A G80C,0.222
18,G17A C19G,0
19,G17A C19A,0.142
20,C15U C18A,0.0639
21,C15G C30G,0.317
22,C15U G81A,0.554
23,C15U G81U,0.554
24,C15U G59U,0.895

row,Variant,self-cleavage
1,C15U C36U,0.886
2,C15U G53C,0.956
3,A16G G55A,0.943
4,A16G C18G,0.111
5,C15A U27C,0.277
6,C15A U27A,0.594
7,C15U C33U,0.708
8,C15A C57U,0.8
9,C15A C57G,0.623
10,C15A C57A,0.764
11,C15U C63U,0.914
12,A16U C84A,0.665
13,A16U C26U,0.831
14,A16G C64A,0.782
15,A16U U72C,0.569
16,C15U G25A,0.0898
17,C15A C75U,0.141
18,A16C G50C,0.959
19,A16U C41G,0.401
20,A16U C41A,0.87
21,A16U C86U,0.852
22,A16C U65C,0.256
23,C15U U47C,0.779
24,C15U U47G,0.89

row,Variant,self-cleavage
1,C15A C61G,0.508
2,A16C A43C,0.415
3,C15U C57G,1.06
4,C15U C84G,0.635
5,C15U C84U,0.962
6,C15A C84A,0.539
7,A16U C24A,0.482
8,A16U C24G,0.237
9,C15G C64U,1.02
10,A16U C44G,0.604
11,C15G A77G,0.332
12,C15G A77U,0.158
13,C15U C66A,1.11
14,C15G C57G,0.692
15,C15G C57U,0.554
16,C15G G73U,0.147
17,C15G G73A,0.162
18,A16C C66G,0.554
19,A16C G38C,0
20,C15A C85G,0.739
21,C15G G31A,0.138
22,A16G U69C,1.15
23,A16U A51U,0.914
24,A16U A51C,0.923

row,Variant,self-cleavage
1,A16U G31C,0.0437
2,A16C A71U,0.623
3,A16C A71G,0.7
4,A16C G40C,0.201
5,C15U A51U,1.08
6,A16U C36U,0.631
7,A16U C62A,0.897
8,C15A U20C,0.135
9,A16U A43U,0.443
10,C15G G54A,0.534
11,A16U C64A,0.743
12,C15U U72A,0.485
13,C15A G53A,0.866
14,C15A G28U,0.0615
15,A16U C85A,1.1
16,A16U C85G,1.03
17,C15A C86A,0.665
18,C15G G76C,0.467
19,C15G G29C,0
20,C15G G29A,0.0339
21,C15G,0.663
22,C15U,0.965
23,A16C U72C,0.227
24,C15G G74A,0.13

row,Variant,self-cleavage
1,A16G C63A,1.03
2,C15U G34A,0.173
3,A16C C18G,0
4,C15U C58G,1.36
5,C15U C58U,0.811
6,A16G C36A,0.229
7,C15U C32G,0.0489
8,A16G C24G,0.178
9,A16C G53U,0.755
10,A16U A56U,1.15
11,A16C A78G,0.361
12,A16C C84A,0.655
13,A16C C84G,0.87
14,C15G C48G,0.739
15,C15U C64G,0.962
16,A16C G34U,0.0489
17,C15U G68U,0.88
18,C15U G68A,0.759
19,C15A C30U,0.104
20,C15A C44A,0.529
21,C15G C66U,0.573
22,C15G G28C,0.107
23,C15G A51U,0.475
24,C15A G34U,0

row,Variant,self-cleavage
1,C15A G34C,0.256
2,A16G G28U,0.0519
3,C15G C36U,0.264
4,C15A G68C,0.458
5,C15A G68A,0.511
6,A16C C22A,0.0594
7,A16C C22U,0.369
8,C15G A43U,0.123
9,A16G G39C,0.0791
10,C15U G54U,0.901
11,C15U C26U,1.2
12,A16U G40C,0.365
13,C15A C49G,0.166
14,C15A C49U,0.656
15,C15G A16U,0.795
16,A16C C86A,0.692
17,C15A G82U,0.232
18,G17A A70C,0.449
19,G17A A70G,0.554
20,A16G G52A,0.975
21,C15A G73A,0.283
22,C15U G67A,0.808
23,C15U G67C,0.883
24,C15U G67U,0.972

row,Variant,self-cleavage
1,A16G C44U,0.615
2,A16G C44A,0.748
3,C15A C58G,1.02
4,C15A U65G,0.653
5,A16C G59A,0.649
6,C15U A71U,0.598
7,A16G G82C,0.172
8,A16G G82A,0.453
9,C15A G17A,0.302
10,C15A G17U,0.252
11,C15U G80C,0.177
12,A16U G50A,0.933
13,C15A C36G,0.145
14,A16C A70G,0.923
15,C15G G50C,0.575
16,C15G G50U,0.598
17,A16C C64A,0.895
18,A16C C64G,0.554
19,C15A G54C,0.806
20,C15U A70U,0.831
21,C15U U46G,0.499
22,C15U U46C,0.9
23,C15A C26U,0.895
24,C15U A56G,1.35

row,Variant,self-cleavage
1,C15G C49U,0.554
2,G17A A43G,0.277
3,A16C G81U,0.519
4,A16C G81C,0.346
5,C15G A70C,0.776
6,C15U U69C,0.643
7,C15G C24U,0.196
8,C15U G82A,0.325
9,A16C C57U,0.719
10,A16C G31A,0.297
11,C15G A87C,0.799
12,A16U U20A,0.0875
13,A16C G67U,1.17
14,A16C G67C,0.692
15,C15U G50A,1.08
16,A16G C30A,0.702
17,A16G C30G,0.122
18,C15U G35A,0.475
19,C15U G35C,0.0723
20,C15G A78G,0
21,C15G G52C,0.95
22,C15U U27C,0.712
23,C15A C48G,0.475
24,A16G A83G,0.755

row,Variant,self-cleavage
1,A16G A83C,0.462
2,A16C C58G,0.532
3,A16C C63A,0.942
4,A16U G17A,0.712
5,C15U U37G,0.158
6,A16G C21G,0.0875
7,A16G C21A,0
8,A16G C58U,0.962
9,C15A G76A,0.712
10,C15A U79A,0.519
11,A16G C26U,0.86
12,A16G C26G,0.831
13,A16G C26A,0.867
14,C15G U72A,0.0875
15,C15U A77U,0.246
16,C15G G34C,0
17,G17A A42G,0.119
18,C15G G35U,0.0396
19,C15U C49G,0.485
20,A16C A77G,0.831
21,A16G C49A,1.08
22,C15A G55A,0.796
23,A16U U69C,0.643
24,A16U U69A,0.911

row,Variant,self-cleavage
1,A16C U27C,0.293
2,A16G A77G,0.831
3,A16G C85A,1.32
4,A16G U65A,0.974
5,A16G U65G,1.01
6,A16U A78C,0.156
7,A16G A42C,0.0755
8,A16C U20G,0
9,C15A C32U,0.314
10,C15U C75U,0.227
11,C15U C75A,0.0326
12,A16U A77G,0.739
13,A16U G55C,0.98
14,A16U U79A,1.09
15,C15G A71G,0.727
16,C15G G40C,0.271
17,C15U C62G,0.851
18,A16C G17A,0.519
19,A16C G68C,0.748
20,A16C G68U,0.697
21,C15A G67A,0.499
22,C15G A45U,0.594
23,A16C C48U,0.677
24,C15G C86U,0.791

row,Variant,self-cleavage
1,A16G G59U,1.11
2,A16G G59A,1.29
3,A16G G73A,0.396
4,A16G G73C,0.431
5,C15G G17U,0.243
6,A16G A87C,1.09
7,C15U A87C,1.03
8,A16C C75G,0.268
9,C15G C58G,0.612
10,A16U C57A,1.17
11,A16G G17U,0.643
12,A16G G17C,0.214
13,C15U A78G,0.332
14,A16C A51U,0.935
15,A16U G34U,0.128
16,A16G G54A,0.727
17,A16U A70G,0.855
18,A16U A70C,0.538
19,A16C G55A,0.554
20,C15G G38U,0
21,A16G G29A,0.252
22,C15U C22G,0.147
23,A16C C32U,0.332
24,A16C C32G,0.293

row,Variant,self-cleavage
1,A16U G73C,0.437
2,A16U G73A,0.222
3,A16G G81A,0.604
4,C15U G39U,0.322
5,C15G G59U,0.375
6,A16U U60G,1.15
7,C15G U27C,0.277
8,C15G U27G,0.104
9,A16G C41A,0.798
10,A16U U47C,0.72
11,A16U U65G,0.997
12,C15U A43U,0.284
13,C15U C61U,0.882
14,C15U C61A,1.27
15,C15G C61A,0.516
16,A16G G74C,0.435
17,A16G G74A,0.404
18,C15G G82A,0.0978
19,A16C U23G,0.688
20,A16C A42U,0.208
21,A16U C61A,1.11
22,A16U A42G,0.166
